Reference: article PMC7406314

Target: ARPC1A-STREP (human) (UniProt Q92747)
Test: co-purification of a co-expressed recombinant complex; Arp2/3-C1A complexes with ARPC5, ARPC5L or hybrids co-expressed in Sf21 cells and purified as previously described (Abella et al., 2016); Coomassie-stained gel, band quantification with Fiji normalised to ARPC2; immunoblot of the purified complexes

ARPC5L, sequence (Q9BPX5 whole entry): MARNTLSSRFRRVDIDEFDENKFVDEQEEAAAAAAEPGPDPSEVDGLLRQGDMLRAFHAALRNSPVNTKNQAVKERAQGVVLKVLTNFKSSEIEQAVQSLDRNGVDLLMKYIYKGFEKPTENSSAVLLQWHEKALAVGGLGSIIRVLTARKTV
UniProt Q92747, sequence (Q92747 whole entry): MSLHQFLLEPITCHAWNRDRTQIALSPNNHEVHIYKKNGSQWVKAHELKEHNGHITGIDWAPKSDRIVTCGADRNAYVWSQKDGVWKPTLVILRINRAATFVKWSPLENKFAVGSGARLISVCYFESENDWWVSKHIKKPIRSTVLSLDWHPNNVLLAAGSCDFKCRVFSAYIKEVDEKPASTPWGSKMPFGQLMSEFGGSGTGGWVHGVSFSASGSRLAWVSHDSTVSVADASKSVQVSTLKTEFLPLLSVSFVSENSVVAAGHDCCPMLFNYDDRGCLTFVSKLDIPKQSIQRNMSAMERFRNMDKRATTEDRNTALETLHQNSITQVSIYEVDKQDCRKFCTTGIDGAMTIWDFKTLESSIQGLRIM

gel band ratio to ARPC2 in the purified Arp2/3-C1A complex (subunit occupancy): 0.52
Substance: ARPC5L (from UniProt Q9BPX5 1-153) (natural protein)
